This passage reports ELISA OD 450 nm, EC50 and IC50 results from patent US20210300999A1.

Common to all, as to settings: remark: other sources report otherwise
Assay [1] deals with SARS-CoV-2 Spike trimer (Table A) (SARS-CoV-2), P0DTC2. Kind of assay: ELISA, purified IgG. On the technique in general: In an ELISA, binding on a coated surface is turned into a signal by an enzyme label.
Assay [2] deals with T1, SARS-CoV-2 prefusion-stabilized trimeric spike ectodomain (S2Pecto) (SARS-CoV-2), P0DTC2. Kind of assay: ELISA on coated antigen.
Assay [3] concerns the target T1, SARS-CoV-2 prefusion-stabilized …. Kind of assay: hACE2 blocking ELISA on coated S2Pecto; competitor hACE2.

B1: COV2-2391 (antibody, V domains shown)
VH: QVQLVQSGAEVKKPGASVKVSCKASGYTFGSFDINWVRQATGQGLEWMGRMNSNSGNTAYAQKFQGRVTMTRDTSTNTAYMELSSLRSEDTAMYYCARMRSGWPTHGRPDDFWGRGTLVTVSS
VL: QSVLTQAPSASGTPGQRVTISCSGSNSNIGSYTINWYQQLPGTAPKLLIYGNDQRTSGVPDRFSGSKFGTSASLAISGLQSEDENNYYCAVWDDSLNGLVFGGGTKLTVL
Regarding B1, the ELISA OD 450 nm in assay [1] amounted to 3.57 OD 450 nm.

B2: COV2-2096 (antibody, V domains shown)
VH: QVQLVQSGAEVKKPGASVKVSCKASGYTFGSFDINWVRQATGQGLEWMGRMNSNSGNTAYAQKFQGRVTMTRDTSTNTAYMELSSLRSEDTAMYYCARMRSGWPTHGRPDDFWGRGTLVTVSS
VL: QSVLTQAPSASGTPGQRVTISCSGSNSNIGSYTINWYQQLPGTAPKLLIYGNDQRTSGVPDRFSGSKFGTSASLAISGLQSEDENNYYCAVWDDSLNGLVFGGGTKLTVL
As a reminder, the EC50 is the concentration that produces a half-maximal response. Low values mean an effect from little substance, high ones a need for much substance. The IC50 is the concentration that gives 50% inhibition. B2 showed a 50% effective concentration (EC50) in assay [2] of 0.001 µg/mL. This molecule also yielded an ELISA OD 450 nm in assay [1] of 4.3 OD 450 nm. The half-maximal inhibitory concentration (IC50) in assay [3] worked out at 0.067 µg/mL.

B3: COV2-2165 (antibody, V domains shown)
VH: EVQLVESGGGLVQPGGSLRLSCAASGLTVRSNYMTWVRQTPGKGLEWVSVIYSGGSTFYADSVKGRFTISRDNSKNTVYLQMNSLRAEDTAVYYCARDLVTYGLDVWGQGTTVTVSS
VL: DIQLTQSPSFLSASVGDRVTITCRASQGISNYLAWYQQKPGTAPNLLIYAASTLQSGVPSRFSGSGSGTEFTLTISSLQPEDFATYYCQLLNSHPLTFGQGTRLEIK
For B3, the EC50 in assay [2] turned out to be 0.0014 µg/mL. Besides, in assay [1], the ELISA OD 450 nm turned out to be 4.2 OD 450 nm. The IC50 in assay [3] amounted to 0.062 µg/mL.

B4: COV2-2952 (antibody, V domains shown)
VH: EVQLVESGGGLVQPGGSLRLSCAASGLTVRSNYMTWVRQTPGKGLEWVSVIYSGGSTFYADSVKGRFTISRDNSKNTVYLQMNSLRAEDTAVYYCARDLVTYGLDVWGQGTTVTVSS
VL: DIQLTQSPSFLSASVGDRVTITCRASQGISNYLAWYQQKPGTAPNLLIYAASTLQSGVPSRFSGSGSGTEFTLTISSLQPEDFATYYCQLLNSHPLTFGQGTRLEIK
In assay [1], B4 registered an ELISA OD 450 nm of 3.54 OD 450 nm.
